Publication doi:10.1101/2021.03.17.435802

Experiments:
ACE2(HH:NN)-Fc (human) = ACE2(HH:NN)-Fc (human) (UniProt Q9BYF1); test: SPR
[1] = molecular target: ACE2(HH:NN)-Fc LALA-PG (human) (UniProt Q9BYF1); test: SPR

## SARS-CoV-2 S1 B.1.1.7 (from UniProt P0DTC2 14-680) (domain or fragment)
ACE2(HH:NN)-Fc (human)
  fold enhanced affinity (against S1 WT): 3 fold
[1]
  fold enhanced affinity (against S1 WT): 3 fold
